Test results as given in publication PMC8461876, “Automation assisted anaerobic phenotyping for metabolic engineering” (Microbial Cell Factories, 2021).

Substrate: O=C1C=CCCC1
Test: purified protein
Format: biochemical, Bacillus subtilis
Settings: 0.15 mM NADPH, 40 mM HEPES pH 7.5, 35 °C, anaerobic (glucose oxidase/glucose), 15 nM enzyme

B1: enoate reductase YqjM (Bs-YqjM) (Bacillus subtilis subsp. subtilis str. 168) (protein)
chain: MARKLFTPITIKDMTLKNRIVMSPMCMYSSHEKDGKLTPFHMAHYISRAIGQVGLIIVEASAVNPQGRITDQDLGIWSDEHIEGFAKLTEQVKEQGSKIGIQLAHAGRKAELEGDIFAPSAIAFDEQSATPVEMSAEKVKETVQEFKQAAARAKEAGFDVIEIHAAHGYLIHEFLSPLSNHRTDEYGGSPENRYRFLREIIDEVKQVWDGPLFVRVSASDYTDKGLDIADHIGFAKWMKEQGVDLIDCSSGALVHADINVFPGYQVSFAEKIREQADMATGAVGMITDGSMAEEILQNGRADLIFIGRELLRDPFFARTAAKQLNTEIPAPVQYERGW
notes: full gene, N-terminal 6xHis tag (p15TvL), tag cleavage not mentioned; expressed in E. coli LOBSTR BL21(DE3); FMN loaded
Km: 350 ± 60 µM
